Reference: patent US20220204567A1 (published 2022)

Assays:
Test in all cases: ELISA
[1] = biological target: wild type HA ectodomain of H3 A/Hong Kong/1/1968 with C-terminal Foldon trimerization domain
[2] = biological target: wild type HA ectodomain of H3 A/Indiana/11/2011 with C-terminal Foldon trimerization domain
[3] = biological target: wild type HA ectodomain of H1 A/Michigan/45/2015 with C-terminal Foldon trimerization domain
[4] = biological target: UFV4239, wild type HA ectodomain of H1 A/California/07/2009 without Foldon trimerization domain

B1: CR9114 (antibody, V domains shown)
VH: QVQLVQSGAEVKKPGSSVKVSCKSSGGTSNNYAISWVRQAPGQGLDWMGGISPIFGSTAYAQKFQGRVTISADIFSNTAYMELNSLTSEDTAVYFCARHGNYYYYSGMDVWGQGTTVTVSS
VL: SYVLTQPPAVSGTPGQRVTISCSGSDSNIGRRSVNWYQQFPGTAPKLLIYSNDQRPSVVPDRFSGSKSGTSASLAISGLQSEDEAEYYCAAWDDSLKGAVFGGGTQLTVL
With B1 the EC50 [1] was 12.7 nM and the EC50 [2] was 25 nM.

B2: CR8020 (antibody, V domains shown)
VH: QVQLQQSGAEVKTPGASVKVSCKASGYTFTSFGVSWIRQAPGQGLEWIGWISAYNGDTYYAQKFQARVTMTTDTSTTTAYMEMRSLRSDDTAVYYCAREPPLFYSSWSLDNWGQGTLVTVSS
VL: EIVLTQSPGTLSLSPGERATLSCRASQSVSMNYLAWFQQKPGQAPRLLIYGASRRATGIPDRISGSGSGTDFTLTISRLEPADFAVYYCQQYGTSPRTFGQGAKVEIK
In the case of B2, the EC50 [3] is reported as > 70 nM, the EC50 [1] is reported as 1.6 nM and the EC50 [2] is reported as 1.9 nM. The EC50 [4] was > 70 nM.

B3: CR6261 (antibody, V domains shown)
VH: EVQLVESGAEVKKPGSSVKVSCKASGGPFRSYAISWVRQAPGQGPEWMGGIIPIFGTTKYAPKFQGRVTITADDFAGTVYMELSSLRSEDTAMYYCAKHMGYQVRETMDVWGKGTTVTVSS
VL: QSVLTQPPSVSAAPGQKVTISCSGSSSNIGNDYVSWYQQLPGTAPKLLIYDNNKRPSGIPDRFSGSKSGTSATLGITGLQTGDEANYYCATWDRRPTAYVVFGGGTKLTVL
With B3 the EC50 [3] was 0.6 nM, the EC50 [1] was > 70 nM and the EC50 [2] was > 70 nM. It also gave an EC50 [4] of 1 nM.
